In experiment [1] the target is T1, Full-length Human OX40 (human, UniProt P43489 29-277).
T1 sequence: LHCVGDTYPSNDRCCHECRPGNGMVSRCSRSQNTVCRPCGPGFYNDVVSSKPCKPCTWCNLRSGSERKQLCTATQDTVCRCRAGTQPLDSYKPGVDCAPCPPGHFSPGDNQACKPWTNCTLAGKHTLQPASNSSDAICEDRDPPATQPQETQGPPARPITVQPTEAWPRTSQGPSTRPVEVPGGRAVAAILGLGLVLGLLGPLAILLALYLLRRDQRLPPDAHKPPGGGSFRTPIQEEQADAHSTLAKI
In words: cell-based or functional assay.

Experiment [2] concerns the target T2, Full-length Human 4-1BB (human, UniProt Q07011 24-255). In words: cell-based or functional assay.
For experiment [3], the target named is T1, Full-length Human OX40. The experiment in a line: flow cytometry, CHO cells expressing human OX40. In general terms: Flow cytometry measures light scatter and fluorescence of single cells or particles in a stream.
The target of experiment [4] is T2, Full-length Human 4-1BB. The experiment in a line: flow cytometry, Jurkat cells expressing human 4-1BB. The protocol:
(§1) Serial dilutions of ADAPTIR™ constructs were incubated with cells transfected with human or cynomolgus ECD and subsequently labelled with a fluorescently-conjugated goat-α-human Fc secondary antibody. […] (See Example 16.)

Another experiment addresses T3, Human OX40 ECD-AFH (human).
T3 construct: ECD'; entry includes the C-terminal tags; also called OXF003; Human OX40 ECD-avi-flag-his
T3 chain: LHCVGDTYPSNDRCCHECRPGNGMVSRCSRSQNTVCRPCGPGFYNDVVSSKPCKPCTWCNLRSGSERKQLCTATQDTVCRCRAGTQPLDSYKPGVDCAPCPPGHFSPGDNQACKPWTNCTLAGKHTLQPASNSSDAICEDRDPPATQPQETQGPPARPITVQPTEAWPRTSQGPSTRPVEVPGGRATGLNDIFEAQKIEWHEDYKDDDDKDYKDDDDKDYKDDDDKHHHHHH
In words: SPR (T200), construct captured, monomeric ECD as analyte. The protocol:
(§2) Mouse anti-human IgG (GE, BR-1008-39) at 25 μg/ml in 10 mM sodium acetate pH 5.0 was immobilized at a density of ˜10,000 response units (RU) onto each flow cell of a CM5 research-grade sensor chip (GE) by standard amine coupling chemistry. Each binding protein at approximately 100 nM in HBS-EP+ with 0.2% BSA buffer was captured in a flow cell with the immobilized anti-human IgG at a flow rate of 10 μL/min for 20 seconds, leaving one flow cell surface unmodified as the reference. Using a single-cycle kinetics mode, five different concentrations of ECD were sequentially injected through each flow cell at 30 μL/min for 300 seconds followed by a 600 second dissociation period. Regeneration was achieved by injection of 3 M MgCl₂ at a flow rate of 30 μL/min for 30 seconds followed by HBS-EP+ with 0.2% BSA buffer stabilization for 1 min.
(§3) Sensorgrams obtained from kinetic SPR measurements were analyzed by the double subtraction method. The signal from the reference flow cell was subtracted from the analyte binding response obtained from flow cells with immobilized or captured ligands. Buffer reference responses were then averaged from multiple injections. The averaged buffer reference responses were then subtracted from analyte binding responses, and the final double-referenced data were analyzed with Biacore T200 Evaluation software (2.0, GE), globally fitting data to derive kinetic parameters. All sensorgrams were fitted using a simple one-to-one binding model.

The target in a further experiment is T4, Human 4-1BB ECD-AFH (human).
T4 construct: entry includes the tags; also called FOB003; HUMAN CD137 ECD-AVI-FLAG-HIS
The experiment is described as above. The protocol: as §2, §3

In a further experiment the target is T5, Full-length Cyno 4-1BB (cynomolgus monkey, UniProt Q07011 24-255 (human entry)).
T5 construct: on Jurkat or CHO cells; also called FOB006; cynomolgus 4-1BB
T5 chain: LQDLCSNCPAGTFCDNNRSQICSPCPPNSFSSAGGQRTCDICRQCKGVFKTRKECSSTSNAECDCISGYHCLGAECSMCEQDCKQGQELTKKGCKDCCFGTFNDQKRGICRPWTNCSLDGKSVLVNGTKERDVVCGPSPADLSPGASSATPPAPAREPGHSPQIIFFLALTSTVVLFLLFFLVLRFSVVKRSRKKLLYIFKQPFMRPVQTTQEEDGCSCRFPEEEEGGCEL
The experiment in a line: flow cytometry on Jurkat cells transfected with cynomolgus 4-1BB, goat anti-human Fc secondary antibody, MFI (Mean). The protocol: as §1

The target of another experiment is T6, Full-length Cyno OX40 (cynomolgus monkey, UniProt P43489 29-277 (human entry)).
T6 construct: on CHO-K1SV cells; also called OXF004; cynomolgus OX40
T6 chain: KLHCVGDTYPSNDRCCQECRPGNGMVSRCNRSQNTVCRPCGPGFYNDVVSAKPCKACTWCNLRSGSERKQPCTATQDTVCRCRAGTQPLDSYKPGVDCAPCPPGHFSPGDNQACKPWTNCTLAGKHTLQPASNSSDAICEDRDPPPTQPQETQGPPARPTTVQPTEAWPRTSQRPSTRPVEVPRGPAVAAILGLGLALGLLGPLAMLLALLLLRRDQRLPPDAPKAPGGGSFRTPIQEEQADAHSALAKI
The experiment in a line: flow cytometry on CHOK1SV cells transfected with cynomolgus OX40, goat anti-human Fc secondary antibody, MFI (Mean). How it is done:
as §1

One may read the EC50 as the concentration at which the effect is half-maximal. A high value points to lower potency in that assay. A word on the Kd: it is the constant that tells how readily two partners part at equilibrium. Low values mean a tighter complex, high ones a looser complex. A word on the koff: it is the first-order rate constant of dissociation. A lower koff goes with a long-lived complex. One may read the kon as a measure of how fast the partners come together. Lower therefore signals slow association. In general, EC50 (read off the curve) refers to the concentration giving half of the maximal effect. High values mean weaker potency, low ones greater potency.

T4 sequence (chain, as listed by the source limits assumed): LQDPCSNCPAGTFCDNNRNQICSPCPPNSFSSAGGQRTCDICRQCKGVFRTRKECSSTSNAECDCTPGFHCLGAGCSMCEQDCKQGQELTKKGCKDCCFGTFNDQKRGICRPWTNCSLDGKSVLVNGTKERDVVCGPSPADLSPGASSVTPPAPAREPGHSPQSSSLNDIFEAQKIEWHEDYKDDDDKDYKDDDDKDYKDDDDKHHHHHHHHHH

B1: FXX01079 (bispecific antibody)
chain: SYVLTQPPSVSVAPGQTARITCGGNNIGSKSVNWFQQKPGQAPVLVVYDDSGRPSGIPERFSGSTSGNTATLTISRVEAGDEADYYCQVWDSSSDHVVFGGGTKLTVLGGGGSGGGGSGGGGSGGGGSQVQLVESGGGVVQPGRSLRLSCAASGFTLSYYGMHWVRQAPGKGLEWVAVISHDGSDKYYADSVKGRFTISRDNSKNTLYLQMNSLRAEDTAVYYCSNDQFDPWGQGTLVTVEPKSSDKTHTCPPCPAPPAAAPSVFLFPPKPKDTLMISRTPEVTCVVVDVSHEDPEVKFNWYVDGVEVHNAKTKPREEQYNSTYRVVSVLTVLHQDWLNGKEYKCAVSNKALPAPIEKTISKAKGQPREPQVYTLPPSRDELTKNQVSLTCLVKGFYPSDIAVEWESNGQPENNYKTTPPVLDSDGSFFLYSKLTVDKSRWQQGNVFSCSVMHEALHNHYTQKSLSLSPGGGGSPSEVQLVQSGAEVKKPGASVKVSCKASGYTFTSYWMNWVRQAPGQGLEWMGNIYPSGGSTNYAQKFQGRVTMTVDTSTSTVYMELSSLRSEDTAVYYCASFSDGYYAYAMDYWGQGTLVTVSSGGGGSGGGGSGGGGSGGGGSEIVMTQSPATLSLSPGERATLSCRASQSVSSYLNWYQQKPGQAPRLLIYYASRRHTGIPARFSGSGSGTDFTLTISSLQPEDFAVYYCQQGYNLPYTFGQGTKVEIKR
notes: ADAPTIR scFv-Fc-scFv, anti-OX40 N-terminal, anti-4-1BB C-terminal; also called FX01079
Consider B1, for which, in the experiment with Full-length Human OX40 [1], the “OX40 Reporter Assay EC50” value came to 0.023 nM and the “OX40 Reporter Assay Max induction” value was 470000. In the experiment with Full-length Human 4-1BB [2], the “4-1BB Reporter Assay EC50” value is 0.025 nM and the “4-1BB Reporter Assay Max induction” value came to 6.26e+06. Moreover, in the experiment with Full-length Human OX40 [3], the EC50 is 1.4 nM and the “Max MFI” value is 9820 MFI. Further, in the experiment with Full-length Human 4-1BB [4], a half-maximal response (EC50) required 0.53 nM and the “Max MFI” value was 4120 MFI. Besides, in the experiment with Human OX40 ECD-AFH, the Kd was determined as 0.3 nM, the koff turned out to be 0.00012 s⁻¹ and the kon came out at 450000 M⁻¹ s⁻¹. Also, in the experiment with Human 4-1BB ECD-AFH, binding was characterised by a dissociation constant (Kd) of 37 nM, the koff worked out at 0.0038 s⁻¹ and the kon was found to be 100000 M⁻¹ s⁻¹. Further, in the experiment with Full-length Cyno 4-1BB, the binding result is on record as “binds”. Also, in the experiment with Full-length Cyno OX40, the “EC50 (read off the curve)” value was around 2 nM.

B2: FXX01047 (bispecific antibody)
chain: EVQLVQSGAEVKKPGASVKVSCKASGYTFTSYWMNWVRQAPGQGLEWMGNIYPGSSTTNYAQKFQGRVTMTVDTSTSTVYMELSSLRSEDTAVYYCASFSDGYYAYAMDYWGQGTLVTVSSGGGGSGGGGSGGGGSGGGGSEIVMTQSPATLSLSPGERATLSCRASQDISNYLNWYQQKPGQAVRLLIYYTSRLHSGIPARFSGSGSGTDYTLTISSLQPEDFAVYFCQQGYTLPYTFGQGTKVEIKEPKSSDKTHTCPPCPAPPAAAPSVFLFPPKPKDTLMISRTPEVTCVVVDVSHEDPEVKFNWYVDGVEVHNAKTKPREEQYNSTYRVVSVLTVLHQDWLNGKEYKCAVSNKALPAPIEKTISKAKGQPREPQVYTLPPSRDELTKNQVSLTCLVKGFYPSDIAVEWESNGQPENNYKTTPPVLDSDGSFFLYSKLTVDKSRWQQGNVFSCSVMHEALHNHYTQKSLSLSPGGGGSPSSYVLTQPPSVSVAPGQTARITCGGNNIGSKSVNWFQQKPGQAPVLVVYDDSGRPSGIPERFSGSTSGNTATLTISRVEAGDEADYYCQVWDSSSDHVVFGGGTKLTVLGGGGSGGGGSGGGGSGGGGSQVQLVESGGGVVQPGRSLRLSCAASGFTLSYYGMHWVRQAPGKGLEWVAAISHDGSDKYYADSVKGRFTISRDNSKNTLYLQMNSLRAEDTAVYYCSNDQFDPWGQGTLVTVSSR
notes: ADAPTIR scFv-Fc-scFv, anti-4-1BB N-terminal, anti-OX40 C-terminal; also called FX01047
Take B2: in the experiment with Full-length Human OX40 [1], the “OX40 Reporter Assay EC50” value came to 0.01 nM and the “OX40 Reporter Assay Max induction” value was determined as 1.97e+06. In the experiment with Full-length Human 4-1BB [2], the “4-1BB Reporter Assay EC50” value was 0.014 nM and the “4-1BB Reporter Assay Max induction” value came out at 6.58e+06. Moreover, in the experiment with Full-length Human OX40 [3], the EC50 was 0.35 nM and the “Max MFI” value turned out to be 10500 MFI. In the experiment with Full-length Human 4-1BB [4], the EC50 is 0.32 nM and the “Max MFI” value turned out to be 4940 MFI. In the experiment with Human OX40 ECD-AFH, this molecule displayed a Kd of 0.4 nM, a koff of 0.00016 s⁻¹ and a kon of 400000 M⁻¹ s⁻¹. In the experiment with Human 4-1BB ECD-AFH, this molecule had a dissociation constant (Kd) of 7 nM, a koff of 0.002 s⁻¹ and a kon of 280000 M⁻¹ s⁻¹. Besides, in the experiment with Full-length Cyno 4-1BB, the “EC50 (read off the curve)” value was around 0.6 nM. For the same molecule, the “EC50 (read off the curve)” value with Full-length Cyno OX40 is around 2 nM.

B3: FXX01055 (bispecific antibody)
chain: SYVLTQPPSVSVAPGQTARITCGGNNIGSKSVNWFQQKPGQAPVLVVYDDSGRPSGIPERFSGSTSGNTATLTISRVEAGDEADYYCQVWDSSSDHVVFGGGTKLTVLGGGGSGGGGSGGGGSGGGGSQVQLVESGGGVVQPGRSLRLSCAASGFTLSYYGMHWVRQAPGKGLEWVAVISHDGSDKYYADSVKGRFTISRDNSKNTLYLQMNSLRAEDTAVYYCSNDQFDPWGQGTLVTVEPKSSDKTHTCPPCPAPPAAAPSVFLFPPKPKDTLMISRTPEVTCVVVDVSHEDPEVKFNWYVDGVEVHNAKTKPREEQYNSTYRVVSVLTVLHQDWLNGKEYKCAVSNKALPAPIEKTISKAKGQPREPQVYTLPPSRDELTKNQVSLTCLVKGFYPSDIAVEWESNGQPENNYKTTPPVLDSDGSFFLYSKLTVDKSRWQQGNVFSCSVMHEALHNHYTQKSLSLSPGGGGSPSEVQLVQSGAEVKKPGASVKVSCKASGYTFTSYWMNWVRQAPGQGLEWMGNIYPGSSTTNYAQKFQGRVTMTVDTSTSTVYMELSSLRSEDTAVYYCASFSDGYYAYAMDYWGQGTLVTVSSGGGGSGGGGSGGGGSGGGGSEIVMTQSPATLSLSPGERATLSCRASQDISNYLNWYQQKPGQAVRLLIYYTSRLHSGIPARFSGSGSGTDYTLTISSLQPEDFAVYFCQQGYTLPYTFGQGTKVEIKR
notes: ADAPTIR scFv-Fc-scFv, anti-OX40 N-terminal, anti-4-1BB C-terminal; also called FX01055
As to B3, in the experiment with Full-length Human OX40 [1], the “OX40 Reporter Assay EC50” value came to 0.013 nM and the “OX40 Reporter Assay Max induction” value was 2.03e+06. In the experiment with Full-length Human 4-1BB [2], the “4-1BB Reporter Assay EC50” value came out at 0.013 nM and the “4-1BB Reporter Assay Max induction” value was 6.82e+06. For the same molecule, in the experiment with Full-length Human OX40 [3], a half-maximal effect (EC50) was put at 0.4 nM and the “Max MFI” value was determined as 10400 MFI. For the same molecule, in the experiment with Full-length Human 4-1BB [4], the response was half-maximal at 0.27 nM (EC50) and the “Max MFI” value was 4750 MFI. Further, in the experiment with Human OX40 ECD-AFH, the Kd was 0.3 nM, the koff came to 0.00013 s⁻¹ and the kon was determined as 440000 M⁻¹ s⁻¹. In the experiment with Human 4-1BB ECD-AFH, the Kd amounted to 21 nM, the koff was 0.0018 s⁻¹ and the kon turned out to be 84000 M⁻¹ s⁻¹. The “EC50 (read off the curve)” value with Full-length Cyno 4-1BB was around 1 nM. The “EC50 (read off the curve)” value with Full-length Cyno OX40 is around 2 nM.

The record behind these values is patent publication US20220242962A1 (APTEVO RESEARCH AND DEVELOPMENT, published 2022).
